Earlier results on one substance are cited in PMC9249222.

Broadly, the Kd is a measure of binding affinity in units of concentration.

The target in series [1] is UBR5 HECT PAM2L (Homo sapiens) (UniProt O95071).
Another series deals with PAIP PAM2 (Homo sapiens) (UniProt Q9H074).
Chain of PAIP PAM2 (Homo sapiens) (Q9H074 116-143): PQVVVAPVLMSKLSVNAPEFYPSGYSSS

Chain of UBR5 MLLE (O95071 2377-2454): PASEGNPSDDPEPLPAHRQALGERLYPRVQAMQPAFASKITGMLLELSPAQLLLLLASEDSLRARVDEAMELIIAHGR

UBR5 MLLE (from UniProt O95071): the equilibrium dissociation constant (Kd) in series [1] is 50 µM; in the series with PAIP PAM2 (Homo sapiens), 3.4 µM.
